Target: α-enolase of Enterococcus faecalis V583, surface-expressed

B1: human glu-plasminogen (Haematologic technologies) (protein)
chain: KVYLSECKTGNGKNYRGTMSKTKNGITCQKWSSTSPHRPRFSPATHPSEGLEENYCRNPDNDPQGPWCYTTDPEKRYDYCDILECEEECMHCSGENYDGKISKTMSGLECQAWDSQSPHAHGYIPSKFPNKNLKKNYCRNPDRELRPWCFTTDPNKRWELCDIPRCTTPPPSSGPTYQCLKGTGENYRGNVAVTVSGHTCQHWSAQTPHTHNRTPENFPCKNLDENYCRNPDGKRAPWCHTTNSQVRWEYCKIPSCDSSPVSTEQLAPTAPPELTPVVQDCYHGDGQSYRGTSSTTTTGKKCQSWSSMTPHRHQKTPENYPNAGLTMNYCRNPDADKGPWCFTTDPSVRWEYCNLKKCSGTEASVVAPPPVVLLPDVETPSEEDCMFGNGKGYRGKRATTVTGTPCQDWAAQEPHRHSIFTPETNPRAGLEKNYCRNPDGDVGGPWCYTTNPRKLYDYCDVPQCAAPSFDCGKPQVEPKKCPGRVVGGCVAHPHSWPWQVSLRTRFGMHFCGGTLISPEWVLTAAHCLEKSPRPSSYKVILGAHQEVNLEPHVQEIEVSRLFLEPTRKDIALLKLSSPAVITDKVIPACLPSPNYVVADRTECFITGWGETQGTFGAGLLKEAQLPVIENKVCNRYEFLNGRVQSTELCAGHLAGGTDSCQGDSGGPLVCFEKDKYILQGVTSWGLGCARPNKPGVYVRVSRFVTWIEGVMRNN
plasmin activity assay with enolase-blocking antibodies: The data is consistent with surface-expressed alpha-enolase being one of multiple PLG receptors on E. faecalis

Reference: patent publication US20210252040
